Assay results: paper PMC11969024 (2025)

B1: peptide HD2 (from tick evasin EVA4) / CCL1 (biotinylated, synthetic) (parent complex)
chain 1: EEDDYTAYAPLTCYFT
chain 2: KSMQVPFSRCCFSFAEQEIPLRAILCYRNTSSICSNEGLIFKLKRGKEACALDTVGWVQRHRKMLRHCPSKRK
B2: peptide HD2 (from tick evasin EVA4) / CXCL14 (biotinylated, synthetic) (parent complex)
chain 1: EEDDYTAYAPLTCYFT
chain 2: SKCKCSRKGPKIRYSDVKKLEMKPKYPHCEEKMVIITTKSVSRYRGQEHCLHPKLQSTKRFIKWYNAWNEKRRVYEE

Variants of: B1

Variant | enrichment
chain 1 Y14I | -4.18 log2 (difference from the parental peptide)
chain 1 Y14T | -6.17 log2 (difference from the parental peptide)
chain 1 Y14M | -4.74 log2 (difference from the parental peptide)
chain 1 Y14R | -7.32 log2 (difference from the parental peptide)
chain 1 Y14F | 0.0997 log2 (difference from the parental peptide)
chain 1 Y14W | -0.649 log2 (difference from the parental peptide)
chain 1 Y14Q | -5.69 log2 (difference from the parental peptide)
chain 1 T12W | 0.647 log2 (difference from the parental peptide)
chain 1 T12V | -1.56 log2 (difference from the parental peptide)
chain 1 T12R | -1.56 log2 (difference from the parental peptide)
chain 1 T12N | 1.57 log2 (difference from the parental peptide)
chain 1 T12A | -2.04 log2 (difference from the parental peptide)
chain 1 T12P | 0.359 log2 (difference from the parental peptide)
chain 1 T12G | -9.53 log2 (difference from the parental peptide)
chain 1 T12S | -1.12 log2 (difference from the parental peptide)
chain 1 T12Y | 1.88 log2 (difference from the parental peptide)
chain 1 T12C | -5.86 log2 (difference from the parental peptide)
chain 1 D3W | -3.57 log2 (difference from the parental peptide)
chain 1 D3T | -2.84 log2 (difference from the parental peptide)
chain 1 D3V | -3.25 log2 (difference from the parental peptide)
chain 1 D3G | -3.36 log2 (difference from the parental peptide)
chain 1 D3S | -3.39 log2 (difference from the parental peptide)
chain 1 D3N | -2.85 log2 (difference from the parental peptide)

Variant | enrichment
chain 1 D3A | -2.56 log2 (difference from the parental peptide)
chain 1 D3E | 1.49 log2 (difference from the parental peptide)
chain 1 A9Y | -5.89 log2 (difference from the parental peptide)
chain 1 A9F | -5.95 log2 (difference from the parental peptide)
chain 1 A9E | 2.72 log2 (difference from the parental peptide)
chain 1 A9S | -1.71 log2 (difference from the parental peptide)
chain 1 P10M | -6.14 log2 (difference from the parental peptide)
chain 1 P10A | -5.62 log2 (difference from the parental peptide)
chain 1 P10Q | -4.62 log2 (difference from the parental peptide)
chain 1 E2A | -1.98 log2 (difference from the parental peptide)
chain 1 E2L | -2.22 log2 (difference from the parental peptide)
chain 1 E2S | -2.78 log2 (difference from the parental peptide)
chain 1 E2H | -3.7 log2 (difference from the parental peptide)
chain 1 E2V | -1.95 log2 (difference from the parental peptide)
chain 1 E1K | -5.3 log2 (difference from the parental peptide)
chain 1 E1Q | -1.24 log2 (difference from the parental peptide)
chain 1 E1D | 2.01 log2 (difference from the parental peptide)
chain 1 E1P | -3.07 log2 (difference from the parental peptide)
chain 1 E1W | -2.32 log2 (difference from the parental peptide)
chain 1 E1F | -2.45 log2 (difference from the parental peptide)
chain 1 E1T | -1.42 log2 (difference from the parental peptide)
chain 1 E1H | -2.16 log2 (difference from the parental peptide)
chain 1 E1I | -1.54 log2 (difference from the parental peptide)

Variant | enrichment
chain 1 E1G | -1.01 log2 (difference from the parental peptide)
chain 1 E1Y | -0.577 log2 (difference from the parental peptide)
chain 1 E1R | -4.21 log2 (difference from the parental peptide)
chain 1 E1L | -1.81 log2 (difference from the parental peptide)
chain 1 C13D | -7.39 log2 (difference from the parental peptide)
chain 1 C13P | -6.51 log2 (difference from the parental peptide)
chain 1 C13E | -6.35 log2 (difference from the parental peptide)
chain 1 C13V | -4.73 log2 (difference from the parental peptide)
chain 1 C13N | -5.11 log2 (difference from the parental peptide)
chain 1 C13Y | -5.39 log2 (difference from the parental peptide)
chain 1 C13G | -9.66 log2 (difference from the parental peptide)
chain 1 C13A | -7.27 log2 (difference from the parental peptide)
chain 1 C13S | -4.71 log2 (difference from the parental peptide)
chain 1 D4F | -6.41 log2 (difference from the parental peptide)
chain 1 D4I | -6.7 log2 (difference from the parental peptide)
chain 1 D4N | -6.19 log2 (difference from the parental peptide)
chain 1 D4W | -2.57 log2 (difference from the parental peptide)
chain 1 D4H | -7 log2 (difference from the parental peptide)
chain 1 D4P | -4.71 log2 (difference from the parental peptide)
chain 1 D4A | -7.31 log2 (difference from the parental peptide)
chain 1 D4L | -6.1 log2 (difference from the parental peptide)
chain 1 D4Y | -4.35 log2 (difference from the parental peptide)
chain 1 F15T | 1.39 log2 (difference from the parental peptide)

Variant | enrichment
chain 1 F15C | -6.07 log2 (difference from the parental peptide)
chain 1 F15E | -0.986 log2 (difference from the parental peptide)
chain 1 F15A | 2.04 log2 (difference from the parental peptide)
chain 1 F15S | -0.0654 log2 (difference from the parental peptide)
chain 1 F15L | 2.03 log2 (difference from the parental peptide)
chain 1 F15N | -1.79 log2 (difference from the parental peptide)
chain 1 F15Y | 1.84 log2 (difference from the parental peptide)
chain 1 F15V | 2.71 log2 (difference from the parental peptide)
chain 1 F15H | 2.15 log2 (difference from the parental peptide)
chain 1 F15W | -0.244 log2 (difference from the parental peptide)
chain 1 L11R | 0.643 log2 (difference from the parental peptide)
chain 1 L11F | -4.27 log2 (difference from the parental peptide)
chain 1 L11C | -1.68 log2 (difference from the parental peptide)
chain 1 L11Y | 0.82 log2 (difference from the parental peptide)
chain 1 L11A | -2.67 log2 (difference from the parental peptide)
chain 1 L11W | -0.114 log2 (difference from the parental peptide)
chain 1 L11I | 2.18 log2 (difference from the parental peptide)
chain 1 L11V | 3.09 log2 (difference from the parental peptide)
chain 1 L11T | -0.173 log2 (difference from the parental peptide)
chain 1 L11Q | 1.31 log2 (difference from the parental peptide)
chain 1 L11D | -8.31 log2 (difference from the parental peptide)
chain 1 L11S | -4.97 log2 (difference from the parental peptide)
chain 1 L11G | -8.48 log2 (difference from the parental peptide)

Variant | enrichment
chain 1 T16G | 1.22 log2 (difference from the parental peptide)
chain 1 T16C | 0.749 log2 (difference from the parental peptide)
chain 1 T16N | -0.351 log2 (difference from the parental peptide)
chain 1 T16W | -0.962 log2 (difference from the parental peptide)
chain 1 T16P | 1.67 log2 (difference from the parental peptide)
chain 1 T16Q | 0.281 log2 (difference from the parental peptide)
chain 1 T16H | -0.232 log2 (difference from the parental peptide)
chain 1 T16L | -0.0976 log2 (difference from the parental peptide)
chain 1 T16E | 1.93 log2 (difference from the parental peptide)
chain 1 T16S | 0.836 log2 (difference from the parental peptide)
chain 1 T16M | 0.0746 log2 (difference from the parental peptide)
chain 1 T16A | 1.5 log2 (difference from the parental peptide)
chain 1 T16V | -0.26 log2 (difference from the parental peptide)
chain 1 T16F | -0.729 log2 (difference from the parental peptide)
chain 1 T6Y | -1.82 log2 (difference from the parental peptide)
chain 1 T6H | -1.17 log2 (difference from the parental peptide)
chain 1 T6D | 4.62 log2 (difference from the parental peptide)
chain 1 T6N | 0.938 log2 (difference from the parental peptide)
chain 1 T6G | 3.41 log2 (difference from the parental peptide)
chain 1 T6V | -5.45 log2 (difference from the parental peptide)
chain 1 T6I | -5.87 log2 (difference from the parental peptide)
chain 1 T6P | -5.02 log2 (difference from the parental peptide)
chain 1 T6E | 3.09 log2 (difference from the parental peptide)

Variant | enrichment
chain 1 T6F | -4.18 log2 (difference from the parental peptide)
chain 1 T6C | -10.4 log2 (difference from the parental peptide)
chain 1 T6Q | 1.62 log2 (difference from the parental peptide)
chain 1 T6W | 0.875 log2 (difference from the parental peptide)
chain 1 Y5I | -7.45 log2 (difference from the parental peptide)
chain 1 Y5L | -5.06 log2 (difference from the parental peptide)
chain 1 Y5W | 0.92 log2 (difference from the parental peptide)
chain 1 Y5F | -4.11 log2 (difference from the parental peptide)
chain 1 Y8M | -7.72 log2 (difference from the parental peptide)
chain 1 Y8P | -6.09 log2 (difference from the parental peptide)
chain 1 Y8L | -7.27 log2 (difference from the parental peptide)
chain 1 Y8F | -0.41 log2 (difference from the parental peptide)
chain 1 Y8V | -4.63 log2 (difference from the parental peptide)
chain 1 A7F | -3.93 log2 (difference from the parental peptide)
chain 1 A7I | -3.58 log2 (difference from the parental peptide)
chain 1 A7L | -2.16 log2 (difference from the parental peptide)
chain 1 A7M | 1.33 log2 (difference from the parental peptide)
chain 1 A7H | -2.76 log2 (difference from the parental peptide)
chain 1 A7R | 2.51 log2 (difference from the parental peptide)
chain 1 A7E | 0.457 log2 (difference from the parental peptide)
chain 1 A7N | -1.23 log2 (difference from the parental peptide)

Variants of: B2

Variant | enrichment
chain 1 A7L | 0.408 log2 (difference from the parental peptide)
chain 1 A7V | -1.42 log2 (difference from the parental peptide)
chain 1 A7P | -3.32 log2 (difference from the parental peptide)
chain 1 D4Y | -1.42 log2 (difference from the parental peptide)
chain 1 C13V | 2.72 log2 (difference from the parental peptide)
chain 1 T12Y | 2.9 log2 (difference from the parental peptide)
chain 1 T12C | -5.89 log2 (difference from the parental peptide)
chain 1 L11M | 2.64 log2 (difference from the parental peptide)
chain 1 L11W | 0.85 log2 (difference from the parental peptide)
chain 1 L11S | -6.87 log2 (difference from the parental peptide)
chain 1 F15I | -3.52 log2 (difference from the parental peptide)
chain 1 Y8D | 2.61 log2 (difference from the parental peptide)
chain 1 E1W | -4.16 log2 (difference from the parental peptide)
chain 1 Y5C | -4.43 log2 (difference from the parental peptide)
